The target of one data set is MT1-MMP hemopexin domain (Homo sapiens, UniProt P50281). The data set is described as follows: Fluorescence polarization direct binding / competition assay to MT1-MMP hemopexin domain. Here is the method: Direct Binding Fluorescence Polarization or Anisotropy Assays are performed by titrating a constant concentration of fluorescent tracer (here, the fluoresceinated bicyclic peptide to be studied) with its binding partner (here, the MT1-MMP hemopexin domain). As the concentration of binding partner increases during the titration, the polarization signal changes in proportion to the fraction of bound and unbound material. This allows determination of […] (Kd) quantitatively. Assay data can be fit using standard ligand binding equations.
Typically, concentrations of the tracer are ideally well below the Kd of the tracer: titrant pair, and concentrations chosen are usually at ˜1 nM or less. The titrant (binding partner) concentration is varied from 0.1 nM up to typically 5 μM. The range is chosen such that the maximum change in fluorescent polarization can be observed. Buffers employed are phosphate buffered saline in the presence of 0.01% Tween. Experiments were run in black 384 well low-bind/low volume plates (Corning 3820), and the fluorescent polarization signal was measured using a BMG Pherastar FS plate reader. Fluorescent tracers referred to in the text are bicyclic peptides that have been fluoresceinated using 5,6-carboxyfluorescein. Fluoresceination may be performed on the N-terminal amino group of the peptide, which is separated from the bicycle core sequence by a sarcosine spacer (usually Sar10 (SEQ ID NO: 73)). This can be done during Fmoc solid phase synthesis or post-synthetically (after cyclization with the molecular scaffold reagent and purification) if the N-terminal amino group is unique to the peptide. Fluoresceination can also be performed on the C-terminus, usually on a Lysine introduced as the first C-terminal residue, which is then separated from the bicycle core sequence by a sarcosine spacer (usually Sar6 (SEQ ID NO: 69)). Thus, N-terminal tracers can have a molecular format described as Fluo-Ala-Sar10-A (SEQ ID NO: 72) (BicycleCoreSequence), and (BicycleCoreSequence)-A-Sar6-K (Fluo) (SEQ ID NO: 67) for a C-terminally fluoresceinated construct.
Fluorescent tracers used in the Examples are A-(17-69)-A-Sar6-K (Fluo) (SEQ ID NO: 67), A-(17-69-07)-A-Sar6-K (Fluo) (SEQ ID NO: 67), and A-(17-69-12)-A-Sar6-K (Fluo) (SEQ ID NO: 67). Due to the acidic nature of the 17-69 fluorescent peptides, they were typically prepared as concentrated DMSO stocks, from which dilution were prepared in 100 mM Tris pH 8 buffer.
Due to their high affinities to the MT1-MMP Hemopexin domain (PEX), the fluoresceinated derivatives of 17-69-07 and 17-69-12 (denoted as 17-69-07-N040 and 17-69-12-N005, respectively) can be used for competition experiments (using FP for detection). […] Dissociation of the complex can be measured quantitatively, and the Kd of the competitor (titrant) to the target protein determined. The advantage of the competition method is that the affinities of non-fluoresceinated bicyclic peptides can be determined accurately and rapidly.
Subsequently, the non-fluorescent competitor bicyclic peptide (usually just the bicycle core sequence) is titrated, such that it displaces the fluorescent tracer from the target protein. The displacement of the tracer is measured and associated with a drop in fluorescence polarization. The drop in fluorescence polarization is proportional to the fraction of target protein bound with the non-fluorescent titrant, and thus is a measure of the affinity of titrant to target protein. […]
On the technique in general: In fluorescence polarisation assays a small probe gives low polarisation when free and higher when bound to something large.

Data set [1] can be described thus: Organ distribution of 177Lu-labelled peptides in HT1080 xenograft mice. In kind it is in vivo, BALB/c nu/nu mice. Particulars: male, BALB/c nu/nu, iv, total radioactivity. Here is the method: (§1) General procedure for radiolabelling with Lu-177.
(§2) • 50 μL 0.25 M Na-Acetate buffer pH 5.2+0.1% Tween 20; • 10 μL [Lu-177]LuCl3 in 0.05 M HCl; and • 2 μL of the diluted peptide (2 nmols). […]
(§3) Organ distribution studies, general method: For organ distribution, the respective dose is prepared by dilution of the labeling reaction mixture in injection buffer (0.25 M Na-Acetate pH 7+0.05% Tween20). The ^177Lu-radiolabeled peptide was injected via the tail vein of the nu/nu mice (50 kBq per mouse), transplanted with the respective cell line. At indicated time points after injection the animals were sacrificed. Blood, heart, lung, spleen, liver, kidney, muscle, brain, femur, and the tumor were dissected, blotted dry, and weighed. The radioactivity was measured with a γ-counter (CobraII; Canberra Packard) along with a sample of the injection solution to calculate the percentage injected dose per gram of tissue (% ID/g).
(§4) The γ- and β-emitter ^177LuCl3 (NEZ307D, Perkin Elmer, in 0.04 M HCl), with a t1/2 of 6.7 days was used for both in vivo biodistribution and internalization studies. Labeling reactions were performed by adding 10 μL ^177LuCl3 (˜10 MBq) in 50 mM HCl, 2 μL of the diluted peptide (1 mM solution in 50 mM HEPES buffer pH 7+0.1% Tween 20 diluted from a 10 mM DMSO stock) to 50 μL 50 mM HEPES buffer pH 7 supplemented with 0.1% Tween 20. The reaction mixture was incubated at 98° C. for 10 minutes. The radiochemical yield (RCY) was determined using high performance liquid chromatography (HPLC) system equipped with a Latek P402 (Latek, Eppelheim, Germany), a HITACHI variable UV detector (absorbance was measured at 214 and 254 nm) and a gamma detector (Bioscan, WA, USA), using a Chromolith RP-18 column (100×4.6 mm; Merck). The analytical HPLC run was performed at 4 mL/min, using a linear A (0.1% trifluoroacetic acid (TFA) in water) to B (0.1% TFA in acetonitrile) gradient (0% B to 100% B in 6 min). Thin-layer chromatography was performed in parallel to confirm the results of the radio-HPLC. The RCY was generally >95%, and thus, the output of labelling reactions was directly diluted with the appropriate buffer and further unlabeled peptide if required, to use in subsequent experiments.
(§5) 5×10^6 cells of HT1080 were subcutaneously inoculated into the right trunk of male 6-week-old BALB/c nu/nu mice (Charles River Laboratories). The tumors were grown for approximately 1 week, to a maximum size of ˜200 mm^3. Respective doses were prepared by mixing a fixed quantity of 5 pmoles ^177Lu labelled peptides (at approx. 50 kBq) with different quantities of non-labelled peptide (derived from 1 mM stock solution in 0.25 M sodium acetate pH 7+0.05% Tween20) in 100 μL injection buffer (0.25 M sodium acetate pH 7+0.05% Tween20). 3 animals were used per dose and timepoint. Radiolabelled peptide solutions were injected via the tail vein, followed by sacrifice at various time points. Organs of interest (blood, heart, lung, spleen, liver, kidney, muscle, small intestine, brain, HT1080 tumor) were dissected, blotted dry, and weighed. The radioactivity was measured using a gamma counter and calculated as % ID/g.

The subject of a further data set is HT1080 tumor. The description is as above. The format is in vivo, BALB/c nu/nu mice. Particulars: 177Lu-labelled, 48 hr p.i. The protocol: as §1, §2, §3, §4, §5

The structures appear in SMILES notation. Read-outs that look alike come from different tables or passages of the source. *1 amine or outer side, *2 acyl side, *3 side chain or, on linkers, in order; H or OH if unused. Where a SMILES comes first, the peptide text is derived from it. Bridges are numbered along the chain shown (N, C = ends). [ ]: non-standard residue; d: D form. The star is where a group is joined. DOTA = O=C(O)CN1CCN(CC(=O)O)CCN(CC(=O)*)CCN(CC(=O)O)CC1; 1Nal = N[C@@H](Cc1cccc2ccccc12)C(=O)O; TBMB = c1c(C[*:1])cc(C[*:3])cc1C[*:2]; Palmitoyl = CCCCCCCCCCCCCCCC(=O)*; Tle = CC(C)(C)[C@H](N)C(=O)O; βAla = NCCC(=O)O; Sar = CNCC(=O)O

These results are taken from US12552837B2, “Bicyclic peptide ligands with detectable moieties and uses thereof” (BicycleRD Limited, priority 2017, dated 2026).

As usually defined, the Kd is the free concentration of one partner at which half of the binding sites on the other are occupied at equilibrium, for simple one-to-one binding.

Consider `CCCCCCCCCCCCCCCC(=O)NCCC(=O)N(C)CC(=O)N(C)CC(=O)N(C)CC(=O)N(C)CC(=O)N(C)CC(=O)N[C@@H](CCCCNC(=O)CN1CCN(CC(=O)O)CCN(CC(=O)O)CCN(CC(=O)O)CC1)C(=O)N(C)CC(=O)N(C)CC(=O)N(C)CC(=O)N(C)CC(=O)N(C)CC(=O)N(C)CC(=O)N(C)CC(=O)N(C)CC(=O)N(C)CC(=O)N(C)CC(=O)N[C@@H](C)C(=O)N[C@H]1CSCc2cc3cc(c2)CSC[C@H](NC(=O)[C@@H](C)NC(=O)[C@H](Cc2cccc4ccccc24)NC(=O)[C@H](CCC(=O)O)NC(=O)[C@H](CC(N)=O)NC(=O)[C@@H](C)NC1=O)C(=O)N[C@@H](CCC(=O)O)C(=O)N[C@@H](CC(=O)O)C(=O)N[C@@H](Cc1ccccc1)C(=O)N[C@@H](Cc1ccc(O)cc1)C(=O)N[C@@H](CC(=O)O)C(=O)N[C@@H](C(C)(C)C)C(=O)N[C@H](C(N)=O)CSC3` [I-25] ({Palmitoyl-βAla}-[Sar][Sar][Sar][Sar][Sar]K(DOTA)[Sar][Sar][Sar][Sar][Sar][Sar][Sar][Sar][Sar][Sar]AC[dA]NE[1Nal][dA]CEDFYD[Tle]C-NH2; linker 18-24-31 via TBMB), for which binding on MT1-MMP hemopexin domain was characterised by a dissociation constant (Kd) of 2.25 ± 0.5 nM. Further, the tissue to tissue ratio at 6 h in data set [1] (HT1080 tumor / blood, 750 pmole/mouse, 6 hrs, read-out: tumour to blood signal ratio) was found to be 19. Further, the tissue to tissue ratio at 48 h in data set [1] (HT1080 tumor / blood, 750 pmole/mouse, 48 hrs, read-out: tumour to blood signal ratio) was determined as 97. In data set [1] (HT1080 tumor, 750 pmole/mouse, 2 h p.i., read-out: tumour accumulation), the tissue uptake at 2 h is 25 ± 1.61 %ID/g. Also, the tissue uptake at 6 h in data set [1] (HT1080 tumor, 750 pmole/mouse, 6 h p.i., read-out: tumor uptake (maximum)) stood at 35.9 ± 1.11 %ID/g. In addition, the tissue uptake at 48 h in data set [1] (HT1080 tumor, 177Lu-labelled, 48 hr p.i., 750-1000 pmole/mouse, read-out: tumour signal) is roughly 26 %ID/g; in data set [1] (mouse, HT1080 tumor, 750 pmoles injected dose, 48 h p.i., read-out: tumor accumulation in HT1080 xenografts), 24.1 ± 2.5 %ID/g. In addition, in the data set on HT1080 tumor, the “signals in spleen, liver and small intestine” value is given as less than 4.5%.
